Columns and labels:
Experiment in all cases: flow cytometry, alanine-scan library in HEK-293T, with cytochalasin B
[1] = target: T1, hsGLUT4 L260A (human, UniProt P14672 1-509)
T1 sequence: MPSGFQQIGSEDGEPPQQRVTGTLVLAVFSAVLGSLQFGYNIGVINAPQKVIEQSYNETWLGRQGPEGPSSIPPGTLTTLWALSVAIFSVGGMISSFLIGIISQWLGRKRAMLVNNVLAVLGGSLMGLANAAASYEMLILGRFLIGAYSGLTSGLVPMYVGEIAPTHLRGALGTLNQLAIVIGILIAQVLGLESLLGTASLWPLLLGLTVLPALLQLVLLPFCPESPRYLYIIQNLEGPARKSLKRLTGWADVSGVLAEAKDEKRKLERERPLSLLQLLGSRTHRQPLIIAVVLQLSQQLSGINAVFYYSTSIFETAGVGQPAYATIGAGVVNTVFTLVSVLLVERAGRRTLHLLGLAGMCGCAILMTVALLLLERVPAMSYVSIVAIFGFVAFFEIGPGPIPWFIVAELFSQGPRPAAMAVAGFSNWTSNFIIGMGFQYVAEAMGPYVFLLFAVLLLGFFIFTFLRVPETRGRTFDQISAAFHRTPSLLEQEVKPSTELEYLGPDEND
Procedure: (§1) Because of the state-dependence of the isolated MAbs, we next wished to understand the mechanism by which each MAb could recognize GLUT4 in its different conformations. The residues required for binding of each MAb were determined using shotgun mutagenesis comprehensive alanine scanning (Davidson E & Doranz B J (2014) A High-Throughput Shotgun Mutagenesis Approach to Mapping B-cell Antibody Epitopes. Immunology, which is hereby incorporated by reference in its entirety). All residues of hsGLUT4 were individually mutated to alanine, with existing alanines changed to serines. Mutations were obtained for 508 of the 509 residues of GLUT4 (excluding the initiating methionine). The entire mutation library was transfected into human HEK-293T cells in a 384-well array format (one clone per well) and assessed for immunoreactivity using high-throughput flow cytometry.
(§2) HEK-293T cells were transfected by CaPO₄ with plasmids in 6-well culture plates (Falcon) at 750,000 cells/well. At 48 hours post transfection, cells were stained with anti-V5 and anti-GLUT4 MAbs (purified scFv, 2 μg/ml) followed by biotinylated goat anti-mouse or human antibody (1:500) and streptavidin-PerCP (1:500). Fluorescence was detected using an Intellicyt high-throughput flow cytometer (HTFC; Intellicyt, Albuquerque, N. Mex.). For cell permeabilization, cells were treated with saponin at 0.1% in PBS for 20 minutes. To discriminate intact (live) and permeabilized (dead) cells without the use of detergent, propidium iodide (PI) was added to HEK-293T cells at 1 ug/ml just prior to flow cytometry. Where indicated, cytochalasin B (Sigma) was used at a final concentration of 10 uM and phloretin (Sigma) was used at a final concentration of 100 uM, each added in 10% NGS for 30 minutes prior to antibody staining as well as included with the primary antibody.

[2] = target: T2, hsGLUT4 E315A (human, UniProt P14672 1-509)
T2 sequence: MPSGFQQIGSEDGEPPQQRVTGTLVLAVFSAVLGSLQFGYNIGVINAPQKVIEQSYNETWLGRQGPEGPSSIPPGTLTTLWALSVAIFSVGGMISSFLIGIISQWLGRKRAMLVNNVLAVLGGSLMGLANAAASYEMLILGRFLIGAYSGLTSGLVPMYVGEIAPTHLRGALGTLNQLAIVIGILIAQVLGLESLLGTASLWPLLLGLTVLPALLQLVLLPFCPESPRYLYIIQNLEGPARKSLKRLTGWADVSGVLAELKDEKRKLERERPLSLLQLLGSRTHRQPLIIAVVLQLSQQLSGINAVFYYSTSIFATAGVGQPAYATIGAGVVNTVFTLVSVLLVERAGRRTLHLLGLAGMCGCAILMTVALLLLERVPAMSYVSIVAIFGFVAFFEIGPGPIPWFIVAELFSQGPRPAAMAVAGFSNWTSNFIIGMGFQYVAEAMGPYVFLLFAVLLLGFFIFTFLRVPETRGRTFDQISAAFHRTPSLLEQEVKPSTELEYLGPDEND
Procedure: as §1, §2

[3] = target: T3, hsGLUT4 F405A (human, UniProt P14672 1-509)
T3 sequence: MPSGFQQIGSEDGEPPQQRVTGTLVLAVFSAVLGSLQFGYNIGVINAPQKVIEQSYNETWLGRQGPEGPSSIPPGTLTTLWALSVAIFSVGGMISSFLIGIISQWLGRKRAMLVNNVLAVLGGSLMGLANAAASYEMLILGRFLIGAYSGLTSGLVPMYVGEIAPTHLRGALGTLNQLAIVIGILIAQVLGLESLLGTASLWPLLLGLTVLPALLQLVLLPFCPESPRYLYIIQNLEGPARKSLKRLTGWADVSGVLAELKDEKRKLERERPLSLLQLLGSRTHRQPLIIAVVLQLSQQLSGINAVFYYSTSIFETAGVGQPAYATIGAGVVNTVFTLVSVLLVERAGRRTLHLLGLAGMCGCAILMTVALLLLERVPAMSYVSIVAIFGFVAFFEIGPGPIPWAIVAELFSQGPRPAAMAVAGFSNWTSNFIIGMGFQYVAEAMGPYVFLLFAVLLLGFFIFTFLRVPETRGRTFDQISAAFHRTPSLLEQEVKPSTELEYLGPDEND
Procedure: as §1, §2

[4] = target: T4, hsGLUT4 E507A (human, UniProt P14672 1-509)
T4 sequence: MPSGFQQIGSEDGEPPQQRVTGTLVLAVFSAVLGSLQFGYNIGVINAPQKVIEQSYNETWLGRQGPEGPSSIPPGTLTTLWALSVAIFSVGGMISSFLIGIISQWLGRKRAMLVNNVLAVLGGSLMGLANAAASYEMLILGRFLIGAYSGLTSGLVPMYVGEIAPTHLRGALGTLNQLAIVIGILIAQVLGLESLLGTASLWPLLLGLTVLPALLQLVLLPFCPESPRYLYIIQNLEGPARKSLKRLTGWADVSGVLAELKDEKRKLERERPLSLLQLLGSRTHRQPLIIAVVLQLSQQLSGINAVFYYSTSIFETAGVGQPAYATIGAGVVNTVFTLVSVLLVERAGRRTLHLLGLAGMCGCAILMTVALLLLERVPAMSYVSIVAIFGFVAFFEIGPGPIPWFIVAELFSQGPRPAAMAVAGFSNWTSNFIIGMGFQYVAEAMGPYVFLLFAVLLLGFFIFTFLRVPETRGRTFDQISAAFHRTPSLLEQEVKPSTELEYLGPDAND
Procedure: as §1, §2

B1: AB102 (Fc fusion)
scFv: ALTQPSSVSANLGGTVKITCSGGGSYGYGWYQQKSPGSAPVTVIYSNDQRPSDIPSRFSGSKSGSTATLTITGVRAEDEAIYYCGSTDSDYVGIFGAGTTLTVLGQSSRSSGGGGSSGGGGSAVTLDESGGGLQTPGGTLSLVCKASGFDFSSYATIWVRQAPGKGLEWVAGISGTGTGSSTGYAPAVKGRATISRDNGQSTVRLQLNNLRAEDTGSYFCAKSTGYGDSWIYPDSIDAWGHGTEVIVSS
notes: also called MAb AB102; not shown: Fc fragment of human IgG1, cloned in frame with the scFv
% of binding to wild type GLUT4 [1]: 42% | % of binding to wild type GLUT4 [2]: 76% | % of binding to wild type GLUT4 [3]: 105% | % of binding to wild type GLUT4 [4]: 97%

From patent publication US20210238276A1 (INTEGRAL MOLECULAR, published 2021)
